The nanobody polyreactivity screen of Harvey et al. (2022)

Assay: yeast display, Sf9 membrane polyspecificity reagent, FACS + sequencing; frameworks hold sequencing errors
How it was run: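 After 36–48 hours of galactose induction, yeast (Saccharomyces cerevisiae BJ5465) displaying a synthetic nanobody library were stained at 4 °C for 1 hour with 10% biotinylated, detergent-solubilized Sf9 membrane reagent. Streptavidin microbeads enriched the stained cells before FACS sorting into low and high (top ~1%) gates on anti-HA and streptavidin fluorescence. Each clone's polyreactivity label reflects its gate of origin.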

| Sequence | polyreactivity (PSR sort gate) |
| --- | --- |
| QVQLVESGGGLVQAGGSLRLSCAASGRIFTYYAMGWYRQAPGKERELVAAINGRGGRTYYADSVKGRFTISRDNAKNTVYLQMNSLKPEDTAVYYCAARGYAPDTYGYWGQGTQVTVSS | high polyreactivity |
| QVQLVESGGGLVQAGGSLRLSCAASGRIFTYYGMGWYRQARGKERELVAAISSSGDSTFYADSVKGRFTISRDNGKNTVYLQMNSLKPEDTAVYYCAADYYYVWYDYWGQGTQVTVSS | low polyreactivity |
| QVQLVESGGGLVQAGGSLRLSCAASGRIFTYYTMGWYRRAPGKEREFVAAISWSGTSTYYADSVKGRFTISRDNAKNTVYLQMNSLKPEETAVFNCAARNWYSRYDYWGQGTQVTVSS | high polyreactivity |
| QVQLVESGGGLVQAGGSLRLSCAASGRIFVASAMGWYRQAPGKERELVAAISKTGGSTYYADSVKGRFTISRDNAKKTVYLQMNSLKPEDTAVYYCAADVYRRFDYWGQGTQVTVSS | low polyreactivity |
| QVQLVESGGGLVQAGGSLRLSCAASGRIFVAYTRGWYRQAPGKERELVAAITWNSGSSTYYADSVKGRFTISGDNAKNTVYLQMNSLKPEDTAVYYCAARSAGRYWNYYWGQGTQVTVSS | high polyreactivity |
| QVQLVESGGGLVQAGGSLRLSCAASGRIFVCYAMGLYRQAPGKERELVAAISSSCGSTYYADSVKGRFTISRDKAKNTVYLQMNSLKPEDTAVYYCNTHQRSRMDYWVQGTQVTVSS | low polyreactivity |
| QVQLVESGGGLVQAGGSLRLSCAASGRIFVCYAMGWYRQAPVKERELLAAITCRGGSTYYADSVKGRFTISRDNAKNTVYLQMNSLKPEDTEVYYCAAVGHSGGRRYDYWGQGTQVTVSS | high polyreactivity |
| QVQLVESGGGLVQAGGSLRLSCAASGRIFVDYAMGWYRQAPGKERELVAAIRSSGGSTYYADSVKGRFTISRDNAKNTVYLQMNSLKPEDTAVYYCNTPKYLRASSGYNYWGQGTQVTVSS | high polyreactivity |
| QVQLVESGGGLVQAGGSLRLSCAASGRIFVDYDMGWYRQAPGKERELVAAISFDGGNTYADSVKGRFTISRDNAKNTVYLQMNSLKPEDTAVYYCARDDTSPGYGDQSSNAAYYYWGQGTQVTVSS | low polyreactivity |
| QVQLVESGGGLVQAGGSLRLSCAASGRIFVFYAMGWYRQAPGKERELVAAISKSVGPTYYADSVKGRFTISRDNAKNTVYLQMNSLKPEDTAVYYCASDVDRFFTYKYDYWGQGTQVTVSS | low polyreactivity |
| QVQLVESGGGLVQAGGSLRLSCAASGRIFVGNALGWYRKAPGKERELVAAISGSGDSTYYADSVKGRFTISRDNAKNTVYLQMNSLKPEDTAVYYCNVDYDFVIYYYWYYPGYDYWGQGTQVTVSS | low polyreactivity |
| QVQLVESGGGLVQAGGSLRLSCAASGRIFVGYAMGWYRQAPGKERELVAGIRYSGGSTYYADSVKGRFTISRDNAKNTVYLQMNSLKPEDTAVYYCANQVWHYAGRPNYKYDYWGQGTQVTVSS | low polyreactivity |
| QVQLVESGGGLVQAGGSLRLSCAASGRIFVGYTMGWYRQAPGKERELVAAISSRGGRTNYADSVKGRFTISRDNAKNTVYLQMNSLKPEDTAVYYCATRLYPHQYYYWGQGSQVTVSS | high polyreactivity |
| QVQLVESGGGLVQAGGSLRLSCAASGRIFVGYTMGWYRQAPGKERELVASISWSGASTYYADSVKGRFTISRDNAKNTVYLQMNSLKPEDTAVYYCAARYYKYYNSYDYWGQGTQVTVSS | high polyreactivity |
| QVQLVESGGGLVQAGGSLRLSCAASGRIFVINAMGWYRQAPGKERELVAAIRSGGSTNYADSVKGRFTISRDNAKNTVYLQMNSLKPEDTAVNYCAARNSGRRSKAYDFKMNYWGQGTQVTVSS | high polyreactivity |
| QVQLVESGGGLVQAGGSLRLSCAASGRIFVINDMGWYRKATGKERELVAAITWGSSTYADSVKGRFTISRDNAKNTVYLQMNSLKPEDTAVYYCARDVYPSTWEYDYWGQGTQVTVSS | low polyreactivity |
| QVQLVESGGGLVQAGGSLRLSCAASGRIFVINTMGWYRQAPGKERELVAAISRGGSTNYADSVKGRFTISRDNAKNTVYLQMNSLKPEDTAVYYCAATGYILFAGGGYDYWGQGTQVTVSS | low polyreactivity |
| QVQLVESGGGLVQAGGSLRLSCAASGRIFVKNAMGWYRQAPGKERELVAAISSGSSTNYADSVKGRFTISRDNAKNTVYLQMNSLKPEDTAVYYCAARQAQWDDYWGQGTQVTVSS | high polyreactivity |
| QVQLVESGGGLVQAGGSLRLSCAASGRIFVKSAMGWYRPAPGQERELVAAITSDGSTSYADSVKGRFTISRDNAKNTVYLQMNSQKPEDTAVYYCAKDFFEHSPVSHTYSSSKYDYWGQGTQVTVSS | low polyreactivity |
| QVQLVESGGGLVQAGGSLRLSCAASGRIFVKYAMGWYRQAPGKERELVAAITKSGSSTYYADSVKGRFTISRDNAKNTVYLQMNSLKPEDTAVYYCAALTISRSRTGYYWGQGTQVTVSS | low polyreactivity |
| QVQLVESGGGLVQAGGSLRLSCAASGRIFVLYAMGWYRQAPGKERELVAAISTSGGSTYYADSVKGRFTISRDNAKNTVYLQMNSLKPEDTAVYYCAADRSARFLFIQYYPYGMDYWGQGTQVTVSS | high polyreactivity |
| QVQLVESGGGLVQAGGSLRLSCAASGRIFVLYAMGWYRQAPGKERELVADITVSGGSTYYADSVKGRFTISRDNAKNTVYLQMNSLKPEDTAVYYCAADQRYWKFDSWGQGTQVTVSS | high polyreactivity |

| Sequence | polyreactivity (PSR sort gate) |
| --- | --- |
| QVQLVESGGGLVQAGGSLRLSCAASGRIFVPNAMGWYRQAPGKERELVARISRSDGSTYYADSVKGRFTISRDNAKNTVYLQMNSLKPEDTAVYYCAASTTPRWWSFKYYYWGQGTEVTVSS | high polyreactivity |
| QVQLVESGGGLVQAGGSLRLSCAASGRIFVPYAMGWSRQAPGKERELVAAISWRGGSTNYADSVKGRFTISRDNAKNTVYLQMNSLKPEDTAVYYCAAVPVRYRYSYGYYYWGQGTQVTVSS | high polyreactivity |
| QVQLVESGGGLVQAGGSLRLSCAASGRIFVPYAMGWYRQAPGKERELVAAITWRGGSTYYADSVKGRFTISRDNAKNTVYLQMNSLKPEDTAVYYCNADEASPWFWFSHLQVGMDYWGQGTQVTVSS | low polyreactivity |
| QVQLVESGGGLVQAGGSLRLSCAASGRIFVPYTMGWYRQAPGKERELVAAISRSGGSTYYADSVKGRFTISRDNAKNTVYLQMNSLKPEDTAVYYCAARATNVYSKMDYWGQGTQVTVSS | high polyreactivity |
| QVQLVESGGGLVQAGGSLRLSCAASGRIFVPYTMGWYRQAPGKEWELVAAISRSGGSTYYADSVKGRFTISRDNAKNTVYLQMNSLKPEDTAVYYCAARATNVYSKMDSWGQGTQVTVSS | high polyreactivity |
| QVQLVESGGGLVQAGGSLRLSCAASGRIFVRNAMGWYRQAPGKERELVAAITRTGASTYYADSVKGRFTISRDNAKNTVYLQMNSLKPEDTAVYYCAAVWGWPYWVYRYDYWGQGTQVTVSS | high polyreactivity |
| QVQLVESGGGLVQAGGSLRLSCAASGRIFVRNAMGWYRQAPGKERELVAAITSGAGSTNYADSVKGRFTISRDNAKNTVYLQMNSLKPEDTAVYYCAADYETGAVSILDDYWGQGTQVTVSS | low polyreactivity |
| QVQLVESGGGLVQAGGSLRLSCAASGRIFVRNAMGWYRQAPGKERELVADITNGGSTNYADSVKGRFTISRDNAKNTVYLQMNSLKPEYTAVYYCAADTLGVYDGDYWGQGTQVTVSS | low polyreactivity |
| QVQLVESGGGLVQAGGSLRLSCAASGRIFVRNAMGWYRQAPGKERELVAGISKRGSRTYYADSVKGRFTISRDNPKNTVYLQMNSLKPEDTAVYYCAVRSYIASYRDARIRFYYWGQGTQVTVSS | high polyreactivity |
| QVQLVESGGGLVQAGGSLRLSCAASGRIFVRNAMGWYRQAPGKERELVASISSSSGSTYYADSVKGRFTISRDNAKNTVYIQMNSLKPEDTAVYYCNAGYHFVHWPHVKHKKFDYWGQGTQVTVSS | low polyreactivity |
| QVQLVESGGGLVQAGGSLRLSCAASGRIFVRNPMGWYRQAPGKERELVADITNGGSTNYADSVKGRFTISRDNAKNTVYLQMNSLKPEDTAVYYCAATYPYSWVYSGYYYWGQGTQVTVSS | low polyreactivity |
| QVQLVESGGGLVQAGGSLRLSCAASGRIFVRYAMGWYRQAPGKERELVAAITKSGGSTYYADSVKGRFTISRDNAKNTVYLQMNSLKPEDTAVYYCNADRFYIDYTNTYDSIRDYWGQGTQVTVSS | low polyreactivity |
| QVQLVESGGGLVQAGGSLRLSCAASGRIFVRYTMGWYRQAPGKERELVAAITKRGGSTYYADSVKGRFTISRDNAKNTVYLQMNSLKPEDTAVYYCATDGLGYNRPQDEYWGQGTQVTVSS | high polyreactivity |
| QVQLVESGGGLVQAGGSLRLSCAASGRIFVSNDMGWYRQAPGKERELVAAISWSDDSTHYADSVKGRFTISRDNAKNTVYLQMNSLKPEDTAVYYCNKQRYYSTWRYDYWGQGTQVTVSS | low polyreactivity |
| QVQLVESGGGLVQAGGSLRLSCAASGRIFVSYDMGWYRQAPGKEREFVAAIRRSGSSTYYADSVKGRFTISRDNAKNTVYLQMNSLKPEDTAVYYCAAYQRSRTLRRYDYWGQGTQVTVSS | high polyreactivity |
| QVQLVESGGGLVQAGGSLRLSCAASGRIFVTYAMGWYRHAPGKERELVAAITSDGSTSYADSVKGRFTISRDNAKNTGYLQMNRLKPEDTAVYYSAKDFFEHSPVSHTYSSSKYEYWGQGTQVTVSS | low polyreactivity |
| QVQLVESGGGLVQAGGSLRLSCAASGRIFVTYAMGWYRQAPGKERELVAVISWSGGSTYYADSVKGRFTISRDNAKNTVYLQMNSLKPEDTAVYYCARGLRKVRFDYWGQGTQVTVSS | low polyreactivity |
| QVQLVESGGGLVQAGGSLRLSCAASGRIFVVNAMGWYRQAPGKERELVATITRGASTYADSVKGRFTISRDNAKNTVYLQMNSLKPEDTAVYYCAARSGSWGQGTQVTVSS | high polyreactivity |
| QVQLVESGGGLVQAGGSLRLSCAASGRIFVVNAMGWYRQAPGTERELVAAITRRGGSTYADSVKGRFTISRDNAKNTVYLQMNSLKPEDTAVYYCNAESYYGIFRYKYDYWGQGTQVTVSS | high polyreactivity |
| QVQLVESGGGLVQAGGSLRLSCAASGRIFVVNDMGWYRQAPGKERELVAAMNSGGRTNYADSVKGRFTISRDNAKNTVYLQMPSLKPEDTAVYYCNAKRTGPWFLHVPVYYWGQGTQVTVSS | low polyreactivity |
| QVQLVESGGGLVQAGGSLRLSCAASGRIFVVYAMGWYRQAPGKESELVATISGGSTNYADSVKGRFTISRDNAKNTVYLQMNSVKPDDTAVYYCGMEYWGQGTQVTVSS | low polyreactivity |
